Assay results published in patent publication US20110059060A1.

Target: thuricin CD (Bacillus thuringiensis DPC 6431)

Substance: pepsin (enzyme)
- antimicrobial activity after enzyme treatment (well diffusion assay, C. difficile ATCC 43593) (% reduction in activity): 50

Substance: trypsin (enzyme)
- antimicrobial activity after enzyme treatment (well diffusion assay, C. difficile ATCC 43593) (% reduction in activity): 20
